The results in this text go back to PMC2676423 (Molecular immunology, 2009).

“And” between values parts separate entries of the source, which are not always exact repeats. Equal entries are not always repeated.

The target of series [1] is native, endogenously expressed feline CD134 on MYA-1 T cells (feline (endogenous in MYA-1)). Description: flow cytometry on cells.
Series [2] has as its target feline CD134 (OX40) expressed on MCC cells (feline). Description: flow cytometry on cells.
Series [3] has as its target human CD134 (OX40) expressed on MCC cells (human) (UniProt P43489). Kind of series: flow cytometry on cells.
For series [4], the target named is Fc-TNC-fCD134L (chicken | feline) (UniProt P10039). Kind of series: non-reducing SDS-PAGE with immunoblot.
Series [5] deals with the molecule itself. Kind of series: non-reducing SDS-PAGE with immunoblot.

Sequence of human CD134 (OX40) expressed on MCC cells (human) (P43489 29-277): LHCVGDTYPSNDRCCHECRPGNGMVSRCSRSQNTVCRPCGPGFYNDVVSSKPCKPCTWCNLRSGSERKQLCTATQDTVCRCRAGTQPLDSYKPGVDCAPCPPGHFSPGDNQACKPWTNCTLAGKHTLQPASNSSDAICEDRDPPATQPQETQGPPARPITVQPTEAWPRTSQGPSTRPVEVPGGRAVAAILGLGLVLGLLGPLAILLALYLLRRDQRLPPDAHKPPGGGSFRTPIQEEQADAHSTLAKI

In series [1], “FLAG-mCD134L (FLAG-tagged murine CD134L) (from UniProt P43488 51-198) (ligand)” showed a mean fluorescence intensity (MFI) of 12 and a percent of cells positive of 86.5%. In series [2], the mean fluorescence intensity (MFI) was 309 and the percent of cells positive came out at 99.7%.
Take “Fc-TNC-fCD134L (from UniProt P10039 110-139) (Fc fusion)”: the mean fluorescence intensity (MFI) in series [3] amounted to 9.9; in series [1], 14; in series [2], 221. Further, the percent of cells positive in series [3] was 45.5%; in series [1], 82.4%; in series [2] it was 99.8%. In addition, in series [4], the stoichiometry N was 6.
In series [1], “FLAG-TNC-fCD134L (from UniProt P10039 110-139) (ligand)” showed a mean fluorescence intensity (MFI) of 3 and a percent of cells positive of 44.9%. In series [2], this molecule registered a mean fluorescence intensity (MFI) of 5 and a percent of cells positive of 66.2%.
In series [1], “Fc-TNC-mCD134L (from UniProt P10039 110-139; P43488 51-198) (Fc fusion)” gave a mean fluorescence intensity (MFI) of 7 and a percent of cells positive of 78.2%. In series [2], this molecule came in with a mean fluorescence intensity (MFI) of 300 and a percent of cells positive of 99.8%.

B1: Fc-TNC-mCD134L (Fc fusion, chicken | mouse)
chain: RSPQPQPKPQPKPEPEGSLHACGCAAAPDIKDLLSRLEELEGLVSSLREQGTGGGSGGRGLQSSSPAKDPPIQRLRGAVTRCEDGQLFISSYKNEYQTMEVQNNSVVIKCDGLYIIYLKGSFFQEVKIDLHFREDHNPISIPMLNDGRRIVFTVVASLAFKDKVYLTVNAPDTLCEHLQINDGELIVVQLTPGYCAPEGSYHSTVNQVPL
Take B1: the “stoichiometry N” value in series [5] came to 6.

B2: Fc-TNC-hCD134L (Fc fusion, chicken | human)
chain: RSPQPQPKPQPKPEPEGSLHACGCAAAPDIKDLLSRLEELEGLVSSLREQGTGGGSGGRGLQVSHRYPRIQSIKVQFTEYKKEKGFILTSQKEDEIMKVQNNSVIINCDGFYLISLKGYFSQEVNISLHYQKDEEPLFQLKKVRSVNSLMVASLTYKDKVYLNVTTDNTSLDDFHVNGGELILIHQNPGEFCVL
As for B2, the “stoichiometry N” value in series [5] was 2 and 6.
